Results from the supplement of paper PMC7877785.
± gives the uncertainty stated by the source.

Assay: self-splicing fitness, log relative to wild type (ln ratio); higher = more splicing; Tetrahymena group I intron in knt gene, E. coli kanamycin selection, DiMSum; sequences stand for … in CUCUCU…GGAGGGAAAAGUUAUCAGGCAUGCACCUGGUAGCUAGUCUUUAAACCAAUAGAUUGCAUCGGUUUAAAAGGCAAGACCGUCAAAUUGCGGGAAAGGGGUCAACAGCCGUUCAGUACCAAGUCUCAGGGGAAACUUUGAGAUGGCCUUGCAAAGGGUAUGGUAAUAAGCUGACGGACAUGGUCCUAACCACGCAGCCAAGUCCUAAGUCAACAGAUCUUCUGUUGAUAUGGAUGCAGUUCACAGACUAAAUGUCGGUCGGGGAAGAUGUAUUCUUCUCAUAAGAUAUAGUCGGACCUCUCCUUAAUGGGAGCUAGCGGAUGAAGUGAUGCAACACUGGAGCCGCUGGGAACUAAUUUGUAUGCGAAAGUAUAUUGAUUAGUUUUGGAGUACUCGUGGUCG
In short: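 Six replicate transformations of E. coli BL21(DE3) with a pET-22b(+) library were grown overnight at 37°C or 30°C. The library randomised all eight P1ex-region intron nucleotides, the intron lying in the knt kanamycin-resistance gene, and plates were LB agar with or without 25 μg/mL kanamycin plus 100 μg/mL carbenicillin, 50 μM IPTG and 0.2% rhamnose. Pooled colonies were amplicon-sequenced on an Illumina HiSeq 2500, and fitness is the DiMSum error-weighted combination of wild-type-normalised replicate fold changes, kanamycin versus none.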

Row | Sequence | self-splicing fitness (ln) (30 °C) | self-splicing fitness (ln) (37 °C)
1 | GUCUAGCAAUAUUACGUACU | -0.946 ± 0.11 | -0.0535 ± 0.1
2 | GUCUAGCAAUAUUACGUAGA | -1.69 ± 0.14 | -0.93 ± 0.2
3 | GUCUAGCAAUAUUACGUAGC | -1.45 ± 0.15 | 0.302 ± 0.2
4 | GUCUAGCAAUAUUACGUCCU | -0.102 ± 0.16 | -0.136 ± 0.14
5 | GUGAAGCAAUAUUACGAACA | -0.242 ± 0.076 | 0.0414 ± 0.11
6 | GUGAAGCAAUAUUACGAAGG | -1.91 ± 0.14 | -0.854 ± 0.17
7 | GUGAAGCAAUAUUACGACAC | -1.1 ± 0.12 | 0.386 ± 0.18
8 | GUGAAGCAAUAUUACGAGAG | -2.92 ± 0.11 | -1.7 ± 0.1
9 | GUGAAGCAAUAUUACGAGGG | -3.74 ± 0.25 | -1.29 ± 0.13
10 | GUGAAGCAAUAUUACGAUUA | 0.198 ± 0.084 | -0.124 ± 0.13
11 | GUGAAGCAAUAUUACGCAGU | -2.6 ± 0.22 | -1.02 ± 0.19
12 | GUGAAGCAAUAUUACGCCAC | -2.66 ± 0.5 | 
13 | GUGAAGCAAUAUUACGCCUU | -0.0499 ± 0.15 | -0.45 ± 0.17
14 | GUGAAGCAAUAUUACGCGUU | -3.59 ± 0.2 | -2.02 ± 0.21
15 | GUGAAGCAAUAUUACGCUUC | -4.23 ± 0.32 | -2.41 ± 0.3
16 | GUGAAGCAAUAUUACGGCAG | -2.32 ± 0.13 | -1.06 ± 0.16
17 | GUGAAGCAAUAUUACGGCGU | 0.663 ± 0.12 | 0.727 ± 0.15
18 | GUGAAGCAAUAUUACGGUAG | -1.79 ± 0.087 | -0.687 ± 0.1
19 | GUGAAGCAAUAUUACGGUCA | -0.465 ± 0.11 | 0.46 ± 0.12
20 | GUGAAGCAAUAUUACGGUCG | -0.124 ± 0.063 | -0.0595 ± 0.085
21 | GUGAAGCAAUAUUACGUAUA | -1.53 ± 0.077 | -0.347 ± 0.1
22 | GUGAAGCAAUAUUACGUGCA | 0.391 ± 0.085 | -0.0531 ± 0.11
23 | GUGCAGCAAUAUUACGAAAC | -1.82 ± 0.1 | -1.26 ± 0.095
24 | GUGCAGCAAUAUUACGACCG | -2.18 ± 0.2 | -1.5 ± 0.27
25 | GUGCAGCAAUAUUACGACCU | -1.51 ± 0.27 | -0.504 ± 0.24

Row | Sequence | self-splicing fitness (ln) (30 °C) | self-splicing fitness (ln) (37 °C)
26 | GUGCAGCAAUAUUACGAGCG | -0.973 ± 0.072 | -0.518 ± 0.083
27 | GUGCAGCAAUAUUACGCCGG | -2.21 ± 0.41 | 
28 | GUGCAGCAAUAUUACGCCUC | -0.807 ± 0.17 | 0.123 ± 0.21
29 | GUGCAGCAAUAUUACGCGCC | -3.58 ± 0.4 | -1.95 ± 0.33
30 | GUGCAGCAAUAUUACGCGGG | -2.81 ± 0.36 | -1.03 ± 0.2
31 | GUGCAGCAAUAUUACGGAAG | -3.19 ± 0.24 | -1.77 ± 0.25
32 | GUGCAGCAAUAUUACGGGAC | -2.09 ± 0.19 | -2.82 ± 0.48
33 | GUGCAGCAAUAUUACGGGCA | -2.08 ± 0.15 | -1.23 ± 0.15
34 | GUGCAGCAAUAUUACGGGUC | -2.38 ± 0.13 | -0.803 ± 0.14
35 | GUGCAGCAAUAUUACGGUGA | -0.753 ± 0.095 | 0.095 ± 0.12
36 | GUGCAGCAAUAUUACGUCAA | -1.6 ± 0.15 | -0.634 ± 0.12
37 | GUGCAGCAAUAUUACGUUAC | -3.66 ± 0.33 | -2.93 ± 0.38
38 | GUGGAGCAAUAUUACGAAAU | -4.22 ± 0.36 | -2.05 ± 0.29
39 | GUGGAGCAAUAUUACGAGUU |  | -1.7 ± 0.43
40 | GUGGAGCAAUAUUACGAUUU | -1.07 ± 0.27 | -1.29 ± 0.29
41 | GUGGAGCAAUAUUACGCACU | 0.427 ± 0.33 | 
42 | GUGGAGCAAUAUUACGCAGU | -2.88 ± 0.18 | -2.58 ± 0.31
43 | GUGGAGCAAUAUUACGCGUA | -2.14 ± 0.36 | -0.34 ± 0.25
44 | GUGGAGCAAUAUUACGGCAA |  | -1.55 ± 0.35
45 | GUGGAGCAAUAUUACGGCGG | -3.32 ± 0.29 | -1.54 ± 0.27
46 | GUGGAGCAAUAUUACGUAUU | -3.11 ± 0.17 | -1.68 ± 0.21
47 | GUGGAGCAAUAUUACGUCUC | -3.56 ± 0.15 | -2.77 ± 0.16
48 | GUGUAGCAAUAUUACGAACG | -1.76 ± 0.16 | -0.988 ± 0.23
49 | GUGUAGCAAUAUUACGAAUA | -1.91 ± 0.39 | -1.39 ± 0.43
50 | GUGUAGCAAUAUUACGACAA | -0.665 ± 0.14 | -0.365 ± 0.21

Row | Sequence | self-splicing fitness (ln) (30 °C) | self-splicing fitness (ln) (37 °C)
51 | GUGUAGCAAUAUUACGACAU | -2.608 ± 0.022 | -1.52 ± 0.037
52 | GUGUAGCAAUAUUACGAGCC | -2.65 ± 0.38 | -2.28 ± 0.31
53 | GUGUAGCAAUAUUACGAGCU | -2.36 ± 0.17 | -0.678 ± 0.21
54 | GUGUAGCAAUAUUACGAUGU | -1.36 ± 0.12 | -0.234 ± 0.14
55 | GUGUAGCAAUAUUACGCACU | -2.59 ± 0.41 | -2.13 ± 0.33
56 | GUGUAGCAAUAUUACGCAUA | -2.5 ± 0.21 | -1.31 ± 0.19
57 | GUGUAGCAAUAUUACGCAUG | -2.88 ± 0.27 | -2.67 ± 0.41
58 | GUGUAGCAAUAUUACGCCCA |  | -0.199 ± 0.35
59 | GUGUAGCAAUAUUACGCCGC | -3 ± 0.46 | -2.79 ± 0.44
60 | GUGUAGCAAUAUUACGGCAA | -0.687 ± 0.17 | -0.481 ± 0.23
61 | GUGUAGCAAUAUUACGGGAA | -2.77 ± 0.19 | -1.74 ± 0.2
62 | GUGUAGCAAUAUUACGGGGU | -3.62 ± 0.26 | -2.63 ± 0.34
63 | GUGUAGCAAUAUUACGGUAU | -2.35 ± 0.12 | -0.18 ± 0.12
64 | GUGUAGCAAUAUUACGUACA | -1.49 ± 0.2 | -1.87 ± 0.28
65 | GUGUAGCAAUAUUACGUAGU | -2.99 ± 0.18 | -1.37 ± 0.17
66 | GUGUAGCAAUAUUACGUCAA | -1.16 ± 0.15 | -1.14 ± 0.15
67 | GUGUAGCAAUAUUACGUGCA | -2.55 ± 0.21 | -1.11 ± 0.26
68 | GUGUAGCAAUAUUACGUUCA | -0.405 ± 0.14 | -0.597 ± 0.13
69 | GUUAAGCAAUAUUACGAAAU | -1.41 ± 0.16 | -2.16 ± 0.24
70 | GUUAAGCAAUAUUACGAAUC | -1.8 ± 0.29 | -0.464 ± 0.17
71 | GUUAAGCAAUAUUACGACAC | -0.925 ± 0.13 | 0.479 ± 0.19
72 | GUUAAGCAAUAUUACGACCU | -0.481 ± 0.14 | -0.37 ± 0.2
73 | GUUAAGCAAUAUUACGAUCG | -2.08 ± 0.25 | -1.18 ± 0.22
74 | GUUAAGCAAUAUUACGCACA | -0.425 ± 0.09 | -0.0375 ± 0.11
75 | GUUAAGCAAUAUUACGCGGA | -0.996 ± 0.27 | -0.987 ± 0.2

Row | Sequence | self-splicing fitness (ln) (30 °C) | self-splicing fitness (ln) (37 °C)
76 | GUUAAGCAAUAUUACGCUAG | -1.64 ± 0.11 | 0.113 ± 0.14
77 | GUUAAGCAAUAUUACGCUGA | -2.98 ± 0.22 | -1.4 ± 0.2
78 | GUUAAGCAAUAUUACGCUUU | -4.08 ± 0.43 | -0.79 ± 0.22
79 | GUUAAGCAAUAUUACGGCAU | -0.746 ± 0.12 | 0.0583 ± 0.18
80 | GUUAAGCAAUAUUACGGCCU | -0.808 ± 0.29 | 0.635 ± 0.44
81 | GUUAAGCAAUAUUACGGGAC | -1.6 ± 0.17 | -0.964 ± 0.23
82 | GUUAAGCAAUAUUACGGGGC | -3.5 ± 0.24 | -2.58 ± 0.25
83 | GUUAAGCAAUAUUACGGGUU | -3.44 ± 0.3 | -2.98 ± 0.23
84 | GUUAAGCAAUAUUACGGUAU | -1.36 ± 0.11 | -0.895 ± 0.12
85 | GUUAAGCAAUAUUACGUACU | -0.559 ± 0.15 | -0.935 ± 0.14
86 | GUUAAGCAAUAUUACGUAGG | -1.73 ± 0.1 | -1.16 ± 0.17
87 | GUUAAGCAAUAUUACGUAUG | -2.44 ± 0.12 | -1.36 ± 0.13
88 | GUUAAGCAAUAUUACGUCGC | -1.61 ± 0.21 | -1.83 ± 0.28
89 | GUUAAGCAAUAUUACGUCUU | -0.682 ± 0.09 | -0.56 ± 0.11
90 | GUUAAGCAAUAUUACGUUGU | -3.68 ± 0.16 | -2.28 ± 0.2
91 | GUUCAGCAAUAUUACGAACG | -2.55 ± 0.35 | -0.953 ± 0.23
92 | GUUCAGCAAUAUUACGAAGU | -0.606 ± 0.098 | -0.391 ± 0.12
93 | GUUCAGCAAUAUUACGAGAU | -2.51 ± 0.16 | -0.359 ± 0.12
94 | GUUCAGCAAUAUUACGAGCC | -3.38 ± 0.18 | -2.48 ± 0.24
95 | GUUCAGCAAUAUUACGAGUA | -1.66 ± 0.19 | -0.65 ± 0.16
96 | GUUCAGCAAUAUUACGAGUC | -1.32 ± 0.15 | -0.628 ± 0.17
97 | GUUCAGCAAUAUUACGAUUA | -0.665 ± 0.12 | -0.545 ± 0.097
